Measurements: patent US20090118194A1, “Measurement of melanocortin peptides and uses thereof” (Auckland UniServices Limited, priority 2002, published 2009)
Entries after “also recorded” stand apart in the source; their conditions may differ.

System: primary rat osteoblasts
Test: Primary rat osteoblast proliferation assay ([3H]thymidine incorporation, cell number)
Format: cell-based
Description: Primary rat osteoblasts were isolated from 20 day fetal rat calvariae. (The use of animals for these studies was approved by the Auckland Animal Ethics Committee.) Calvariae were excised and the frontal and parietal bones, free of suture and periosteal tissue, were collected and sequentially digested using collagenase as previously described (Cornish J, Callon K E, Lin C Q X, Xiao C L, Mulvey T B, Cooper G J S, Reid I R Trifluoroacetate, a contaminant in puritied proteins, inhibits proliferation of osteoblasts and chondrocytes. Amer J Physiol Endocrinol Metab 277: E779-E783, 1999). Primary rat osteoblasts were grown in DMEM supplemented with 10% FCS, 50 U/ml penicillin and 50 μg/ml streptomycin. After 48 hour, the medium was changed to MEM. Confluence was reached within 5-6 days, at which time the cells were subcultured into 10 cm culture plates for RNA preparation or 24 well plates for proliferation assays.
Primary rat osteoblasts were subcultured into 24 well plates at a density of 5×10^4 cells/ml/well in MEM, 5% FCS for 24 hours. Cells were growth arrested in MEM, 0.1% bovine serum albumin (BSA) for 24 hour and then fresh media and experimental compounds were added for a further 24 hours. Cells were pulsed with [^3H]thymidine (0.5 μCi/well) 2 hours before the end of the experimental incubation. The experiment was terminated and both cell numbers and thymidine incorporation were assessed. Cell numbers were analysed by detaching cells from the wells by exposure to trypsin/EDTA (0.05%/0.53 mM) for approximately 5 minutes at 37° C. Counting was performed in a hemocytometer chamber. Results are expressed per well. [^3H]Thymidine incorporation was analysed by washing the cells in MEM followed by the addition of 10% trichloroacetic acid. The precipitate was washed twice with ethnol:ether (3:1) and the wells desiccated at room temperature. The residue was dissolved in 2M KOH at 55° C. for 30 minutes, neutralized with 1M HCl, and an aliquot counted for radioactivity. Results are expressed as dpm per well. Each experiment was performed at least three times using experimental groups consisting of at least six wells.
Data are presented as mean±SEM. The significance of differences between groups was determined using Student's t tests for unpaired data and a 5% significance level. The comparisons to be made in each experiment were specified a priori, so no adjustment for multiple comparisons was necessary. Where several experiments have been shown in one figure, the data are expressed as the ratio of results in treatment groups to those in the control group and the ‘P’ values shown were calculated using the data from the individual experiments, before the data were pooled.

Row | Molecule | antagonism of α-MSH stimulated [3H] thymidine uptake (10^−7 M against α-MSH 10^−8 M and 10^−7 M, growth arrested primary rat osteoblasts) | thymidine incorporation or cell numbers (proliferation) (growth arrested primary rat osteoblasts, 10^−7 M, alone) | antagonism of α-MSH stimulated osteoblast proliferation (agouti protein 10^−9 M-10^−7 M, primary rat osteoblasts) | thymidine incorporation (growth arrested primary rat osteoblasts, 10^−9-10^−7 M, alone) | additivity with α-MSH stimulated thymidine incorporation (primary rat osteoblasts)
1 | ACTH1-24: melanocortin peptide purchased from Bachem California (SYSMEHFRWGKPVGKKRRPVKVYP; Corticotropin; UniProt P01189 138-161, looked up, fragment) | inhibited two doses of α-MSH (10^−8 M and 10^−7 M) from stimulating [^3H] thymidine uptake; also recorded: antagonise α-MSH stimulated stimulation of thymidine incorporation | did not stimulate thymidine incorporation or cells numbers; also recorded: no significant effect on osteoblast proliferation |  |  | 
2 | agouti protein: recombinant mouse agouti protein, antagonist of melanocortin peptides coupling MC1-R, MC2-R, and MC4-R (protein, UniProt Q03288 23-131, looked up) Agouti-signaling protein: HLALEETLGDDRSLRSNSSMNSLDFSSVSIVALNKKSKKISRKEAEKRKRSSKKKASMKKVARPPPPSPCVATRDSCKPPAPACCDPCASCQCRFFGSACTCRVLNPNC |  |  | did not antagonise α-MSH stimulated osteoblast proliferation | significantly stimulated thymidine incorporation | not additive
